The text below walks through data of patent US20260166131A1, “METHOD FOR PROMOTING PATHOLOGICAL TDP-43 PROTEIN DEGRADATION, AND DRUG” (TALENGEN INTERNATIONAL LIMITED, priority 2022, published 2026).

Where “and” joins values, the source holds several entries; their conditions need not be identical. Identical values can stand only once.

The target in data set [1] is T1, TDP-43 (Mus musculus, UniProt Q921F2). The data set can be described thus: TDP-43 in brain tissue of okadaic acid-induced dementia model (FAD) mice (Western blot). Format: in vivo. Further details: from tissue; host or cells: mouse spinal cord, gluteal muscle, brain, kidney cell nuclei. The conditions noted are these: okadaic acid in basolateral amygdala, 50 mg/kg tail vein single dose, 6 hours, vs vehicle group. On the procedure: Ten B6SJL-Tg (APPSwFlLon, PSEN1*M146L*L286V) 6799Vas/Mmjax (hereinafter referred to as FAD) female mice aged 30-32 weeks (purchased from Jackson lab, stock number: 034840) were taken to weigh before modeling as the model group, and five C57 female mice aged 6-7 weeks were selected as the blank group. After grouping, mice in the blank group and model group were anesthetized by intraperitoneal injection of tribromoethanol at a dose of 20 mL/kg. Model mice were located in the basolateral amygdala according to the mouse stereotaxic atlas (according to the coordinates of the bregma: AP-1.94 mm, ML+3.15 mm, DV-4.5 mm), and each mouse was slowly microinjected bilaterally. Mice in the blank group were only drilled at the coordinate location point without injection. The mice in the model group were injected with 50 ng/μL okadaic acid (manufacturer: Shanghai Yuanye Biotechnology Co., Ltd., catalog number S30686-25 ug:) solution, the injection rate was 0.5 μL/min, the injection volume was 2 μL, and after the injection, the syringe stayed for 6 minutes and then slowly withdrew. […] The mice were killed 6 hours after the single administration and the brain tissues were obtained. After homogenization, TDP-43 was detected by western blot.
T1 sequence (Q921F2 whole entry): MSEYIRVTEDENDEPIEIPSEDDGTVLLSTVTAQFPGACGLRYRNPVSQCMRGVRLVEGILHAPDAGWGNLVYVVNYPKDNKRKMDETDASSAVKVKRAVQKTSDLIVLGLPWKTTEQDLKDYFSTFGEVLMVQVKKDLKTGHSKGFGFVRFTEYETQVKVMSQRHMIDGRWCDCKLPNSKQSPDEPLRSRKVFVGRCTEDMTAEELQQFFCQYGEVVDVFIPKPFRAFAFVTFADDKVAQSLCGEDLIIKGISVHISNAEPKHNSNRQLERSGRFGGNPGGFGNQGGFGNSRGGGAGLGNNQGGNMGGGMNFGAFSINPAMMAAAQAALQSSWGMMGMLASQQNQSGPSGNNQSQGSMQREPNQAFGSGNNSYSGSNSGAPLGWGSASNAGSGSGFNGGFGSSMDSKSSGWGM

The target in data set [2] is T2, TDP-43 (Homo sapiens, UniProt Q13148).
T2 construct: purchased Nanjing GenScript Biotechnology Co., Ltd. C134WHE160-2/P5HF001
T2 sequence (Q13148 whole entry): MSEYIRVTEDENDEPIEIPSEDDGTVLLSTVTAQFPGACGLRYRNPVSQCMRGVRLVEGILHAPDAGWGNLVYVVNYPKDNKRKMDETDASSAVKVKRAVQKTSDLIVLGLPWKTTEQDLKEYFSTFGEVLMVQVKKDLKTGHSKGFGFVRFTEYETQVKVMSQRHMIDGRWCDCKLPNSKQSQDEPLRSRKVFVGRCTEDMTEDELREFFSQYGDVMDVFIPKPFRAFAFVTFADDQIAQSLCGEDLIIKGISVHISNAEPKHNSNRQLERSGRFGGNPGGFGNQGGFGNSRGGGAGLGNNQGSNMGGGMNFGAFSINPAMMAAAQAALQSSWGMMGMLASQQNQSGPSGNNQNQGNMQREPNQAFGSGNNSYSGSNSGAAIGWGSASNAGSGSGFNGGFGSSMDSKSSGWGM
The data set can be described thus: Cleavage of TDP-43 protein in brain homogenate of ALS model (SOD1-G93A) mice (Western blot). It is filed as biochemical. The conditions noted are these: SOD1-G93A mouse brain homogenate + recombinant TDP-43, 37° C. 3 h, vs vehicle control group. On the procedure: Four B6.Cg-Tg (SOD1-G93A) 1Gur/J transgenic male mice (referred to as SOD1-G93A transgenic mice) were sacrificed, and the whole brain was taken out to weigh. 1×PBS was added at 150 mg tissue/mL PBS (Thermo Fisher, pH 7.4; 10010-031) to homogenize at 4° C. (1 min, 3-4 times). After homogenization, the supernatant, i.e., the brain homogenate was taken out to place in a new EP tube.
Eppendorf (EP) tubes were set as: (1) blank group, (2) blank control group, (3) vehicle control group, and (4) plasminogen group, with 5 parallels in each group. The blank group was added with 21.5 μL of normal saline, 4.6 μL of vehicle solution (10 mM sodium citrate, 2% arginine hydrochloride, 3% mannitol, pH 7.4), and 23.9 μL of mouse brain homogenate; the blank control group was added with 21.5 μL of normal saline, 2.3 μL of plasminogen solution (2 mg/mL), and 23.9 μL of mouse brain homogenate; the vehicle control group was added with 20.5 μL of TDP-43 (Nanjing GenScript Biotechnology Co., Ltd., custom-expressed human TDP-43, C134WHE160-2/P5HF001, 1.05 mg/mL), 4.6 μL of vehicle solution, and 23.9 μL of mouse brain homogenate; the plasminogen group was added with 20.5 μL of TDP-43 (1.05 mg/mL), 2.3 μL of plasminogen solution (2 mg/mL), and 23.9 μL of mouse brain homogenate. After adding the samples of each group, they were incubated at 37° C. for 3 h, and then 50 μL of 0.1% trifluoroacetic acid solution was added to terminate the reaction.
A 12% gel was prepared according to the SDS-PAGE gel preparation instructions. Each group of samples was mixed with 4× loading buffer (TaKaRa, e2139) at a volume ratio of 3:1, heating at 100° C. for 5 min, cooling and centrifuging for 2 min, and then 20 μL was taken for sample loading. […] After washing 4 times with TBST, the PVDF membrane was placed on a clean imaging plate, Immobilon Western HRP Substrate (MILLIPORE, WBKLS0100) was added for color development, and the membrane was photographed under a biomolecular imager, then performing quantitative analysis by using Image J.

The target in data set [3] is T1, TDP-43. The data set can be described thus: TDP-43 in spinal cord tissue of SOD1-G93A mice after plasminogen (Western blot). Format: in vivo. Further details: from tissue; host or cells: mouse spinal cord, gluteal muscle, brain, kidney cell nuclei. The conditions noted are these: 50 mg/kg tail vein, 24 hours after administration, vs vehicle group, P<0.05. On the procedure: (§1) Six SOD1-G93A mice aged 10-15 weeks were randomly divided into two groups: 3 mice in vehicle control group, and 3 mice in plasminogen group. The vehicle control group mice were injected with the vehicle at 5 ml/kg by tail vein, and the plasminogen group mice were injected with plasminogen (10 mg/ml) at 50 mg/kg body weight by tail vein. The mice were killed 24 hours after administration, and the spinal cords were obtained. After homogenization, TDP-43 was detected by western blot.

Data set [4] can be described thus: Brain tissue plasminogen level after tail vein injection in SOD1-G93A mice (ELISA). On the technique in general: An ELISA detects its analyte on a solid surface through an enzyme-linked reagent.
Protocol: Twenty-seven 10-15 week-age B6.Cg-Tg (SOD1-G93A) 1Gur/J (SOD1-G93A) mice (pedigree number: 004435) (referred to as SOD1-G93A mice) (breeding mice were purchased from Jackson Laboratory, USA) were randomly divided into three groups: three in the vehicle control group, 12 in the 6 mg/kg plasminogen group, and 12 in the 50 mg/kg plasminogen group. The mice in the vehicle control group were injected with vehicle at 5 ml/kg by tail vein, the mice in the 6 mg/kg plasminogen group were injected with plasminogen (1.2 mg/ml) at 6 mg/kg body weight by tail vein, and the mice in the 50 mg/kg plasminogen group were injected with plasminogen (10 mg/ml) at 6 mg/kg body weight by tail vein.
Brain tissue was obtained from the mice sacrificed in Example 11, homogenizing and detecting according to the instructions of Human Plasminogen ELISA Kit (manufacturer: AssayMax, catalog number: EP1200-1). The human plasminogen working standard in the kit was used as the internal standard to calibrate the concentration of each sample. The calibrated concentration was divided by the total protein concentration to calculate the amount of plasminogen per unit of total protein in each sample and perform statistical analysis.
Data set [5] is described as follows: Brain tissue plasminogen level after tail vein injection in FAD mice (ELISA).
In data set [6] the test system is TDP-43. The data set is described as follows: TDP-43 in spinal cord tissue of SOD1-G93A mice after plasminogen (Western blot). Format: in vivo. The conditions noted are these: 50 mg/kg tail vein, 24 hours after administration, vs vehicle group, P<0.05. On the procedure:
as §1
On the technique in general: In western blotting, separated proteins are transferred to a membrane and probed.

B1: plasminogen: human plasminogen purified from human donor plasma, in which human Lys-plasminogen and Glu-plasminogen are >98% (protein)
chain: KVYLSECKTGNGKNYRGTMSKTKNGITCQKWSSTSPHRPRFSPATHPSEGLEENYCRNPDNDPQGPWCYTTDPEKRYDYCDILECEEECMHCSGENYDGKISKTMSGLECQAWDSQSPHAHGYIPSKFPNKNLKKNYCRNPDRELRPWCFTTDPNKRWELCDIPRCTTPPPSSGPTYQCLKGTGENYRGNVAVTVSGHTCQHWSAQTPHTHNRTPENFPCKNLDENYCRNPDGKRAPWCHTTNSQVRWEYCKIPSCDSSPVSTEQLAPTAPPELTPVVQDCYHGDGQSYRGTSSTTTTGKKCQSWSSMTPHRHQKTPENYPNAGLTMNYCRNPDADKGPWCFTTDPSVRWEYCNLKKCSGTEASVVAPPPVVLLPDVETPSEEDCMFGNGKGYRGKRATTVTGTPCQDWAAQEPHRHSIFTPETNPRAGLEKNYCRNPDGDVGGPWCYTTNPRKLYDYCDVPQCAAPSFDCGKPQVEPKKCPGRVVGGCVAHPHSWPWQVSLRTRFGMHFCGGTLISPEWVLTAAHCLEKSPRPSSYKVILGAHQEVNLEPHVQEIEVSRLFLEPTRKDIALLKLSSPAVITDKVIPACLPSPNYVVADRTECFITGWGETQGTFGAGLLKEAQLPVIENKVCNRYEFLNGRVQSTELCAGHLAGGTDSCQGDSGGPLVCFEKDKYILQGVTSWGLGCARPNKPGVYVRVSRFVTWIEGVMRNN
Consider B1, for which the “level of TDP-43 monomer in brain tissue” value in the data set with TDP-43 [1] was “significantly lower”. For the same molecule, the “level of low molecular weight TDP-43 in brain tissue” value with TDP-43 [1] is listed as “significantly lower”. For the same molecule, the “amount of TDP-43 monomer” value in the data set with TDP-43 [2] is “significantly lower”. The “amount of high molecular weight TDP-43 protein (HMW)” value with TDP-43 [2] is “significantly lower”. The “amount of low molecular weight TDP-43 fragment (LMW)” value with TDP-43 [2] was “significantly lower”. Moreover, the “amount of TDP-43 monomer in spinal cord tissue” value in the data set with TDP-43 [3] is “significantly lower”. In addition, the “plasminogen level in brain tissue, 50 mg/kg group compared with 6 mg/kg group” value in data set [4] (SOD1-G93A mice, tail vein) is on record as “significantly higher”; in data set [5] (tail vein), “significantly higher”. For the same molecule, the “time within which plasminogen is almost completely metabolized (brain tissue)” value in data set [4] (SOD1-G93A mice, tail vein 50 mg/kg and 6 mg/kg) was in the range of 12 to 24 h; in data set [5] (tail vein 50 mg/kg and 6 mg/kg), 12 to 24 h. The “plasminogen level in brain tissue” value in data set [4] (SOD1-G93A mice, tail vein injection of 6 mg/kg) is recorded as “increase significantly”; in data set [4] (SOD1-G93A mice, tail vein injection of 50 mg/kg) it was “increase significantly”; in data set [5] (tail vein injection of 6 mg/kg) it was “increase significantly”; in data set [5] (tail vein injection of 50 mg/kg) it was “increase significantly”. The “ratio of brain tissue plasminogen level to blood plasminogen level” value in data set [4] (mouse, in vivo) is 3.47% and 4.94% and 6.79%. The “ratio of plasminogen in brain tissue to plasminogen in blood” value in data set [5] (6 mg/kg plasminogen group, 2 hours) is 3.59%; in data set [5] (6 mg/kg plasminogen group, 6 hours), 4.23%; in data set [5] (50 mg/kg plasminogen group, 2 hours), 2.49%; in data set [5] (50 mg/kg plasminogen group, 6 hours) it was 2.31%; in data set [5] (50 mg/kg plasminogen group, 12 hours) it was 3.32%. In addition, the “amount of low molecular weight TDP-43 in spinal cord tissue” value in the data set with TDP-43 [6] is “significantly lower”.
